Patent publication US9605038B2, “Fusion peptide comprising dhFas-1 domain and MMP substrate and use thereof for preventing and treating rheumatoid arthritis” (Kyungpook National University Industry-Academic Cooperation …, priority 2010, dated 2017)
“Also recorded” adds a separate entry of the source.

B1: MFK27: fusion peptide having sequential links of mdhFas-1, MMP3 substrate GPLGLWARG (SEQ ID NO: 8), and QERGDSLA (SEQ ID NO: 10) (protein)
chain: MALLMRLLTLALALSVGPAGTLARSQAMPPEELNKLLANAKELTNILKYHIGDEILVSGGIGALVRLKSLQGDKLEVSSKNNVVSVNKEPVAETDIMEFGPLGLWARGVDQERGDSLAGLE
modifications: MFK27
B2: mdhFas-1: peptide prepared by removing H1 and H2 regions from the fourth fas-1 domain of mouse βig-h3 (protein)
chain: QAMPPEELNKLLANAKELTNILKYHIGDEILVSGGIGALVRLKSLQGDKLEVSSKNNVVSVNKEPVAETDIM
modifications: mdhFas-1
notes: peptide prepared by removing H1 and H2 regions from the fourth fas-1 domain of mouse βig-h3

Key:
[1] = test system: mouse fibroblast (NIH3T3); test: βig-h3-mediated cell adhesion test, NIH3T3; assay type: cell-based; conditions: for adhesion inhibiting effect: NIH3T3, concentration of 0.5uM, FIG. 15C; for βig-h3-mediated cell adhesion: NIH3T3, βig-h3 5 ug/ml coat
Experimental: (§1) Human βig-h3 was introduced into a 96-well plate at a concentration of 5 ug/ml, and coated for 14 hours at 4° C. In DMEM+0.5% BSA (Bovine Serum Albumin) culture medium, human fibroblast (NIH3T3) was introduced, and hsdhFas-1 peptide at concentrations was injected thereto, followed by mixing. The resultant mixture was cultured at 37° C. for 30 minutes, and plated on a coated well. It was cultured for 2 hours, and washed with PBS (phosphate buffered saline) so as to remove unattached cells, and then added with a substrate (4-Nitrophenyl N-acetyl-β-D-glucosaminide, Sigma, U.S.) to be activated by β-N-acetylglucosaminidase within the cell, followed by culturing at 37° C. for 1 hour. Then, a glycine EDTA solution (0.5M EDTA, 50 mM glycine, pH 10.4) was added thereto, and the coloring extent according to the number of attached cells was measured by absorbance.
Also, a structurally modified peptide of a fas-1 domain of mouse βig-h3 was synthesized as a recombinant peptide (hereinafter, referred to as ‘mdhFas-1peptide’, see FIG. 2), and a mouse cell line, that is, NIH3T3 cell line, was used to test the inhibiting effect by mdhFas-1 peptide on adhesion and migration of a Synovial membrane cell in the same manner as that in the test using human βig-h3.
as §1, with “βig-h3” for “Human βig-h3”, “mouse” for “human”, “MFK23, MFK24, MFK25 or MFK27” for “hsdhFas-1 peptide”

NIH3T3 = test: βig-h3-mediated cell migration test (transwell), NIH3T3; assay type: cell-based, mouse; conditions: 7 hours
Experimental: In the lower compartment of a transwell filter having an 8 um hole size allowing cells to be migrated, βig-h3 was cultured at 4° C. for 12 to 14 hours and coated. In DMEM+0.5% BSA culture medium, NIH3T3 was introduced, and administered with MFK23, MFK24 or MFK25 at concentrations, followed by mixing. The resultant mixture was cultured at 37° C. for 30 minutes, inoculated into the upper chamber of the coated well, and cultured for 7 hours at 37° C. Then, the cells migrated to the lower compartment of the filter were fixed by paraformaldehyde, and strained by a crystal violet. The cells […] remaining in the upper chamber were wiped out and the number of cells migrated to the lower compartment was microscopically counted.

[2] = test system: collagen-induced arthritis (CIA) mouse model; test: Arthritis therapeutic effect in CIA mouse (clinical arthritis index); assay type: in vivo
Experimental: A CIA mouse model having the similar characteristic to that of human rheumatoid arthritis was prepared according to the description in a known literature (Protocol for the successful induction of collagen-induced arthritis (CIA) and collagen antibody-induced arthritis (CAIA) in mice. Chondrex, Redmond, Wash.): Bovine type 2 collagen 100 ug was mixed with Freund's complete adjuvant, and hypodermically inoculated into the tail of the mouse. After 3 weeks, bovine type 2 collagen 100 ug was mixed with Freund's incomplete adjuvant, and inoculated again into the tail of the mouse. Then, the mouse was used in the experiment.
In order to find out the therapeutic effect of arthritis in a CIA model, for four weeks from the onset (the 23rd day) of arthritis following the second injection of the bovine type 2 collagen, MFK23 or MFK24 was daily injected into the abdominal cavity in doses of 0.1 mg/kg, 1 mg/kg, 10 mg/kg and 30 mg/kg. As a control group, the same amount of PBS was injected into the abdominal cavity. From the 23rd day to the 50th day, by using a Clinical arthritis index, the severity of arthritis was daily determined. The determination was based on the following data.
0; no symptom, 1; edema in one articulation or light edema, 2; severe edema in 2 or more articulations, 3; severe edema in most articulations, 4; severe edema in the whole of legs.

[3] = Toxicity test in CIA mouse (weight, serologic test, blood test); conditions: CIA mouse, 22nd day vs 48th day
Experimental: On the 48th day, a serologic test and a blood test were carried out.

| Molecule | adhesion inhibiting effect [1] [%] | βig-h3-mediated cell adhesion [1] | βig-h3-mediated cell migration (NIH3T3) | arthritis inhibition (clinical arthritis index) ([2]; 10 mg/kg daily) | arthritis inhibition (clinical arthritis index) ([2]; 30 mg/kg daily) | arthritis inhibiting effect (clinical arthritis index), in words ([2]; daily into the abdominal cavity) | body weight change compared to control group [3] |
| --- | --- | --- | --- | --- | --- | --- | --- |
| RGDSP (amino acid chain comprising ′RGD′) [reference compound] | 0 |  |  |  |  |  |  |
| B1 |  | even at a very low concentration can inhibit the cell adhesion; also recorded: concentration-dependently inhibited |  |  |  |  |  |
| B2 | 50 | concentration-dependently inhibited | concentration-dependently inhibited | about 32% | about 69% | concentration-dependently inhibited | abnormal findings in the weight change were not observed |
